In publication PMC7753147 (2020):

T1: gephyrin E domain (gephE), recombinant
T1 chain: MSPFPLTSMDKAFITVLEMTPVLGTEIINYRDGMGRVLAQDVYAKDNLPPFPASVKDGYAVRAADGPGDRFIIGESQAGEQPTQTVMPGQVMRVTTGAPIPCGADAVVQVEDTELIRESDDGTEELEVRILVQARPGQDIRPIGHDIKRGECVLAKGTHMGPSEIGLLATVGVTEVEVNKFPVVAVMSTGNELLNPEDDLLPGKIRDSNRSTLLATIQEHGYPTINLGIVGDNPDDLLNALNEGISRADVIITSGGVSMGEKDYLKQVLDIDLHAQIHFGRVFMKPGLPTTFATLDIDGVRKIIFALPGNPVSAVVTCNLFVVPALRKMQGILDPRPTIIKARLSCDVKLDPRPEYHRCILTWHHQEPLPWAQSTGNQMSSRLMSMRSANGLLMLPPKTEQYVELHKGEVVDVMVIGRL

T2: Gephyrin E domain (gephE) (Rattus norvegicus, UniProt Q03555)
T2 chain: T1 chain


Molecular target: T1, gephyrin E domain (gephE), recombinant

Row | Binder | Ki [µM]
1 | DLRSNDFSIVGSLPR (C-terminal amide) [GlyR β-derived peptide 414DLRSNDFSIVGSLPR428, unmodified, in solution] | 10

Molecular target: T2, Gephyrin E domain (gephE)

Row | Binder | EC50 [µM]
2 | DLRSNDFSLVGSLPR [GlyRβ_Full_Positional_Scan_164] | 268
3 | DLRSNDWSIVGSLPR [GlyRβ_Full_Positional_Scan_128] | 380
4 | DLRSNDFSCVGSLPR [GlyRβ_Full_Positional_Scan_177] | 118
5 | DLRSNDFSVVGSLPR [GlyRβ_Full_Positional_Scan_166] | 255
6 | DLRSNDFSMVGSLPR [GlyRβ_Full_Positional_Scan_178] | 228
7 | DLRSNDFSIIGSLPR [GlyRβ_Full_Positional_Scan_183] | 107
8 | DLRSNDYSIVGSLPR [GlyRβ_Full_Positional_Scan_129] | 2200
9 | DLRSNDFTIVGSLPR [GlyRβ_Full_Positional_Scan_156] | 198
10 | DLRSNDFGIVGSLPR [GlyRβ_Full_Positional_Scan_142] | 505
